# Test results taken from US20240189443A1, “PD-L1 AND TLR7 DOUBLE-TARGETING NANOBODY COUPLING DRUG AND USE THEREOF IN ANTI-TUMOR” (SHANGHAI INSTITUTE OF MATERIA MEDICA, CHINESE ACADEMY OF …, priority 2021, published 2024).
# Several values for one entry are separate records, joined by “and”; a condition that tells them apart may be missing. Equal entries are not always repeated.
# B1: Nb16-SZU-101: PD-L1 and TLR7 dual-targeting nanobody coupling drug, Nb16 coupled with SZU-101-NHS active ester (conjugate)
# chain: QVQLQESGGGSVQAGGSLRLSCAASGYTDRNYWMGWFRQAPGKEREGVAALYTRTGSTYYADSVKGRFTISHDNAKNTLYLQMNSLKPEDTAVYYCAADSNAYGLAPLHHYWGQGTQVTVSS
# modifications: left off: a dimerising Fc or GST
# Columns and labels:
# CT26 tumor cells = test: Re-tumor model with CT26 cells in mice with regressed tumor; assay type: in vivo, mouse; settings: re-tumor 1 week after tumor faded
# From the text: Moreover, in the early model, the coupling compound therapy will cause tumor regression of up to 62.5% tumor-bearing mice (FIG. 10B); in the late model, the compound drug will cause 12.5% tumor-bearing mice to have tumor regression (FIG. 10D).
# HEK293T/mPD-L1 = molecular target: T1, HEK293T/mPD-L1 (Mus musculus, UniProt Q9EP73); test: Flow cytometry PD-L1 binding activity assay of the nanobody coupling drug; settings: 17 concentrations 100-0.0008 μg/mL
# T1 construct: expressed in transfected cells; host or cells: HEK293T
# T1 sequence (Q9EP73 19-290): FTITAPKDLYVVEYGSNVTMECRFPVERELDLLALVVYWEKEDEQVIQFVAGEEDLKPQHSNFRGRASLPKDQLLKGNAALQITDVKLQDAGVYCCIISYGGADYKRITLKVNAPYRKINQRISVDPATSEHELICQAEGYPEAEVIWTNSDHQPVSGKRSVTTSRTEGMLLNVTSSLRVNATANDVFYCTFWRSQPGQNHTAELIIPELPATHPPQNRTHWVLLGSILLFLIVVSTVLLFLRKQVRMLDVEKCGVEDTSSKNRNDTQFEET
# [1] = tested on: IFN-γ-induced high-expression PD-L1 CT26; test: IFN-γ-induced high-expression PD-L1 CT26 subcutaneous tumor-bearing model, conjugate vs combined administration; assay type: in vivo, BALB/c mouse; settings: Nb16 or Nb16-SZU-101 10 mg/kg, SZU-101 0.5 mg/kg, intraperitoneal
# Experimental: In an IFN-γ-induced high-expression PD-L1 CT26 subcutaneous tumor-bearing BALB/c mouse model, mice were randomly divided into four groups, namely an mFc group, an Nb16 group, an Nb16/SZU-101 combined administration group and an NB16-SZU-101 nanobody conjugate drug group, wherein the administration dosage of the mFc or Nb 16 or Nb16-SZU-101 was 10 mg/kg, the administration mode was intraperitoneal administration, the administration dosage of the SZU-101 was 0.5 mg/kg, and the administration mode was intraperitoneal administration; the drug was administered on Day 2, Day 6, Day 10 and Day 13 for a total of 4 times. Tumor sizes were measured 2-3 times per week, and tumor growth curves were drawn; and anatomical weighing and photographing were performed on mice at Day 14.
# [2] = molecular target: T2, PD-1/PD-L1 (HEK293T/mPD-L1) (Mus musculus, UniProt Q9EP73); test: Flow cytometry PD-1/PD-L1 blocking activity assay of the nanobody coupling drug; assay type: binding; settings: mouse PD-1-biotin 20 μg/mL
# T2 construct: expressed in transfected cells; host or cells: HEK293T
# T2 sequence (Q9EP73 19-290): as above
# B16-F10 cells = test: Uninduced B16-F10 subcutaneous tumor-bearing model with low expression PD-L1; assay type: in vivo, C57BL/6 mouse; settings: 10 mg/kg intraperitoneal
# Experimental: The 6 to 8-week-old C57BL 6 mice were randomly divided into two groups, which were respectively as an mFc group and a nanobody-coupled drug NB 16-SZU-101 group. 1×10^6 B16-F10 cells (FIG. 9A) of 1×10^6 non-induced low-expression PD-L1 were planted under the underarm skin of mice (FIG. 9A). Administration was performed by using mFc and nanobody coupled drug Nb16-SZU-101, respectively; the administration dosage of the control drug and Nb16-SZU-101 was 10 mg/kg, and the volume is 200 μL; each group of drug delivery manners was intraperitoneal injection. Each group was administered at 2th, 5th, 8th and 11th days after tumor implantation, respectively, and the drug was administered for […]. On Day 12 mice would be euthanized.
molecule,measurement,setting,value
B1,Tumor growth after re-tumor of CT26 cells,CT26 tumor cells,does not grow the tumor within 40 days
same,PD-L1 binding activity of conjugate compared with Nb16,HEK293T/mPD-L1,does not change the binding activity
same,Tumor inhibitory rate,"[1]; Day 14, 4 doses",81%
same,Anti-tumor effect,[1],significantly improved anti-tumor effect
same,Endpoint tumor Weight,"[1]; individual mice, Day 14, 4 doses",0.191 g and 0.146 g and 0.155 g and 0.084 g and 0.012 g and 0.087 g
same,PD-1/PD-L1 blocking activity of conjugate compared with Nb16,[2],does not change the blocking activity
same,Tumor inhibition rate,B16-F10 cells,about 68.2%
